Experimental findings from US6168954A, “Soybean glutathione-S-transferase enzymes” (E. I. du Pont de Nemours & Company, priority 1999, dated 2001) are described below.

Holding throughout (type): biochemical
Common to all, as to conditions: 0.4 mM electrophilic substrate, 4 mM glutathione, 0.1 M MOPS pH 7.0, corrected for uncatalyzed reaction

The nature of test [1]: GST conjugation activity with t-stilbene oxide (HPLC). The source says:
(§1) The GST enzymes, expressed and purified as described in Example 5 were screened for their ability to metabolize a variety of substrates. Substrates tested included the three herbicide electrophilic substrates chlorimuron ethyl, alachlor, and Atrazine, and four model electrophilic substrates, 1-chloro-2, 4-dinitro-benzene (CDNB), ethacrynic acid, t-stilbene oxide, and 1,2-epoxy-3-(p-nitro-phenoxy) propane. The enzymes were purified as described in Example 5 and used in the following assay.
(§2) For each enzyme, the conjugation reaction with each electrophilic substrate was performed by incubating 0.3 to 30 μg enzyme in 0.1 M MOPS (pH 7.0) containing 0.4 mM of the electrophilic substrate. The reaction was inititated by the addition of glutathione to a final concentration of 4 mM. After 5 to 30 min, the reaction was terminated by the addition of 45 μL acetonitrile, microfuged for 10 min to remove precipitated protein, and then the supematent was removed and added to 65 μL of water. This sample was chromatographed on a Zorbax C8 reverse phase HPLC column (3 μm particle size, 6.2 mm×8 cm) using a combination of linear gradients (flow=1.5 mL/min) of 1% H3 PO4 in water (solvent A) and 1% H3 PO4 in acetonitile. The gradient started with 5% solvent B, progressing from 5% to 75% solvent B between 1 and 10 min, and from 75% to 95% solvent B between 10 and 12 min. Control reactions without enzyme were performed to correct for uncatalyzed reaction. Quantitation of metabolites were based on an assumption that the extinction coefficient of the conjugate was identical to that of the electrophilic substrate.
(§3) Activities are related to the activity of a known and previously isolated and purified GST enzyme, GH2/4 (also called GST 26) (Czarnecka et al., Plant Molecular Biology 3:45-58 (1984); Ulmasoz et al., Plant Physiol 108:919-927 (1995)).

A short description of test [2]: GST conjugation activity with Atrazine (HPLC).
Text: as §1, §2, §3

Test [3] in a line: GST conjugation activity with alachlor (HPLC).
Text: as §1, §2, §3

Test [4] is described as follows: GST conjugation activity with CDNB (HPLC).
Text: as §1, §2, §3

Test [5] can be described thus: GST conjugation activity with 1,2-epoxy-3-(p-nitrophenoxy)propane (HPLC).
Text: as §1, §2, §3

Test [6] is described as follows: GST conjugation activity with ethacrynic acid (HPLC).
Text: as §1, §2, §3

Test [7] can be described thus: GST conjugation activity with chlorimuron ethyl (HPLC).
Text: as §1, §2, §3

B1: se1.27b04: soybean type I GST encoded by cDNA insert in clone se1.27b04 (protein)
chain: MICLHEKEVDFELVPVNVFAAEHKQPPFLSKNPFGFIPVLEDGDLTLFESRAITAYVAEKFKETEPDLIRHKDAKEAALVKVWTEVESHYYEPAVSPIIYEYFVAPFQGKEPDKSVIDTNVEKLKTVLDVYEAKLSSTKYLAGDFYSLADLSHVSETHYLMQTPCASMINELPHVKAWWEDISSRPAFNKVVGGMSFGQNH
Consider B1, for which the “Activity of soybean GST enzyme, T-Stilbene Oxide” value (shortened to “Activity … T-Stilbene Oxide”) in test [1] is 0.00 nmol/min/mg. Moreover, the “Activity of soybean GST enzyme, Atrazine” value in test [2] was 0.00 nmol/min/mg. Further, the “Activity of soybean GST enzyme, Alachlor” value in test [3] stood at 0 nmol/min/mg. Besides, the “Activity of soybean GST enzyme, CDNB” value in test [4] worked out at 15 nmol/min/mg. In addition, the “Activity of soybean GST enzyme, 1,2-epoxy-3-(p-nitrophenoxy)propane” value (“Activity … 1,2-epoxy-3-(p-nitrophenoxy)propane” for short) in test [5] came to 0 nmol/min/mg. Further, the “Activity of soybean GST enzyme, Ethacrynic Acid” value (shortened to “Activity … Ethacrynic Acid”) in test [6] came out at 11 nmol/min/mg. In test [7], the “Activity of soybean GST enzyme, Chlorimuron Ethyl” value (“Activity … Chlorimuron Ethyl” below) was found to be 0.1 nmol/min/mg.

B2: ssl.pk0002.f7: soybean type III GST encoded by cDNA insert in clone ss1.pk0002.f7 (protein)
chain: MADGVVLLDTWASMFGMRVRIALAEKGVEYEYKEENLRNKSPLLLQMNPIHKKIPVLIHNGKPICESAIIVQYIDEVWNDKAPILPSDPYERAQARFWVDYIDKKVYDTWRKMWLSKGEEHEAGKKEFISIFKQLEETLSDKAYYGSDTFGFLDIGLIPFYSWFYTFETYGNFKMEEECPKLVAWAKRCMQREAVSKSLS
Take B2: in test [1], the “Activity … T-Stilbene Oxide” value was 0.16 nmol/min/mg. Moreover, in test [2], the “Activity of soybean GST enzyme, Atrazine” value is 0.00 nmol/min/mg. Moreover, in test [3], the “Activity of soybean GST enzyme, Alachlor” value came to 30 nmol/min/mg. In test [4], the “Activity of soybean GST enzyme, CDNB” value was found to be 2576 nmol/min/mg. In addition, in test [5], the “Activity … 1,2-epoxy-3-(p-nitrophenoxy)propane” value is 10 nmol/min/mg. In addition, the “Activity … Ethacrynic Acid” value in test [6] was found to be 68 nmol/min/mg. Moreover, in test [7], the “Activity … Chlorimuron Ethyl” value was determined as 0.9 nmol/min/mg.

B3: ssm.pk0026.g11: soybean type II GST encoded by cDNA insert in clone ssm.pk0026.g11 (protein)
chain: MASASVGKELTLYSYWRSSCSHRVRIALNLKGLKYEYKPVNLLKGEQSRPEFLQLNPVGCVPVLVDDHVVLYDSFAIIMYLEDKYPHNPLLPHDIYKRAINFQAASVVSSTIQPLHNLSLLNYIGEKVGPDEKLPWAQSIIRRGFKALEKLLKDHTGRYATGDEVFLADIFLAPQLHAAFKRFNIHMNEFPILARLHETYNEIPAFQEALPENQPDAVH
For B3, the “Activity … T-Stilbene Oxide” value in test [1] is 0.04 nmol/min/mg. The “Activity of soybean GST enzyme, Atrazine” value in test [2] came to 0.00 nmol/min/mg. In addition, the “Activity of soybean GST enzyme, Alachlor” value in test [3] amounted to 0 nmol/min/mg. In addition, the “Activity of soybean GST enzyme, CDNB” value in test [4] worked out at 15 nmol/min/mg. Also, the “Activity … 1,2-epoxy-3-(p-nitrophenoxy)propane” value in test [5] came out at 2 nmol/min/mg. Besides, the “Activity … Ethacrynic Acid” value in test [6] turned out to be 5 nmol/min/mg. Besides, the “Activity … Chlorimuron Ethyl” value in test [7] turned out to be 0.0 nmol/min/mg.

B4: se1.pk0017.f5: soybean type IV GST encoded by cDNA insert in clone se1.pk0017.f5 (protein)
chain: MASLGVRPVLPPPLTSISDPPPLFDGTTRLYISYSCPYAQRVWIARNYKGLQDKINLVPINLQDRPAWYKEKVYPENKVPSLEHNGKVLGESLDLIKYVDANFEGTPLFPSDPAKKEFGEQLISHVDTFSKDLFVSLKGDAVQQASPAFEYLENALGKFDDGPFLLGQFSLVDIAYIPFVERFQIVFAEVFKHDITEGRPKLATWFEELNKLNAYTETRVDPQEIVDLFKKRFLPQQ
In the case of B4, the “Activity … T-Stilbene Oxide” value in test [1] is 0.15 nmol/min/mg. In addition, in test [2], the “Activity of soybean GST enzyme, Atrazine” value was determined as 0.00 nmol/min/mg. For the same molecule, the “Activity of soybean GST enzyme, Alachlor” value in test [3] is 0 nmol/min/mg. Further, the “Activity of soybean GST enzyme, CDNB” value in test [4] is 30 nmol/min/mg. In addition, in test [5], the “Activity … 1,2-epoxy-3-(p-nitrophenoxy)propane” value amounted to 0 nmol/min/mg. Moreover, the “Activity … Ethacrynic Acid” value in test [6] was 3 nmol/min/mg. Besides, the “Activity … Chlorimuron Ethyl” value in test [7] came to 0.0 nmol/min/mg.
